Results: patent US20080299140A1, “Immunogenic Composition and Peptide Sequences for Prevention and Treatment of an Hsv Condition” (priority 2002, published 2008)
No end group written: not given here.

Target: HLA-DR(α1*0101,α1*1301) (human)
Assay: reference IC50 of the tracer peptide in the HLA class II competition assay

Binder: TERVRLVTRHIYNREE (also: biotinylated when used as tracer) [B1 (21-36)]
- IC50: 276 nM
